The values below come from paper PMC11760825, “Prohibitin 1 tethers lipid membranes and regulates OPA1-mediated membrane fusion” (The Journal of Biological Chemistry, 2024).

The data set concerns the molecule itself. Description: cell-based or functional assay.

B1: recombinant human prohibitin 1 (PHB1), C-terminally histidine-tagged, wild type (natural protein, UniProt P35232 1-272, looked up)
chain: MAAKVFESIGKFGLALAVAGGVVNSALYNVDAGHRAVIFDRFRGVQDIVVGEGTHFLIPWVQKPIIFDCRSRPRNVPVITGSKDLQNVNITLRILFRPVASQLPRIFTSIGEDYDERVLPSITTEILKSVVARFDAGELITQRELVSRQVSDDLTERAATFGLILDDVSLTHLTFGKEFTEAVEAKQVAQQEAERARFVVEKAEQQKKAAIISAEGDSKAAELIANSLATAGDGLIELRKLEAAEDIAYQLSRSRNITYLPAGQSVLLQLPQ
For the protein B1, the “OPA1-mediated liposome fusion (FRET lipid mixing; 0.5 μM L-OPA1 with 2 μM PHB1 against L-OPA1 alone; fusion activity from the first 2 min)” value was ~3 fold.
